From patent US20050214312A1

Target: recombinant human or murine heat shock protein 70 (hsp70) (human or murine)

B1: RGYVYQGL (VSV nucleoprotein amino acids 52-59) (peptide)
peptide: RGYVYQGL
modifications: not checked
Kd: 82 µM
